Laboratory results as given in patent US20260231954A1, “PESTICIDAL ENZYMES FOR USE ON NEMATODES, INSECTS, AND MOLLUSKS” (priority 2023, published 2026).

Legend:
[1] = system: SCN juveniles (SCN HG type 1.2.5.7, race 2); test: In-vitro plate assay of SCN juvenile viability (difference in percent death); assay type: in vivo
Experimental: (§1) SCN eggs were obtained from SCN HG type 1.2.5.7, race 2. Eggs were rinsed 4 times with sterile water. Eggs were transferred to a 6-well plate and resuspended in 5 mL of 3 mM ZnSO4. The plate was sealed with parafilm, covered with aluminum foil to prevent light from entering the plate, and placed in a plate growth chamber at 25° C. and 80% relative humidity. After 6-7 days of incubation, an estimate of hatched SCN juveniles was obtained from the well to determine the overall number of juveniles per 10 μL. The concentration of the hatchery solution was adjusted until it consisted of 20-30 juveniles per 10 μL.
Potato dextrose agar media containing chloramphenicol and chlortetracycline was prepared and added to sterile twenty-four-well cell culture plates (1 mL per well). The plates were divided according to the pre-determined N-value for each treatment (N=12-24). Each treatment being tested was added to the agar surface within each well at a rate of 40 μL per well. Without allowing the treatments to dry, 10 μL of the prepared nematode mixture was added to the agar surface within each well.
To quantify the treatments' effects on nematode viability, the nematodes were examined under a dissecting microscope at 20× magnification. Initial (TO) values for the number of live juveniles, number of dead juveniles and total number of juveniles were recorded immediately after preparation of each well. The plates were then wrapped in parafilm around the open edge, encased in aluminum foil, and placed in secondary containment. The secondary containment was placed in a plant growth chamber at 25° C. and 80% relative humidity. At approximately 24 hours post addition of juveniles, the plates were evaluated, and the number of live juveniles, dead juveniles and total number of juveniles were recorded (T24).
The difference in percent death at T0 vs T24 was calculated by subtracting the percent dead at TO [(#dead juveniles/total #juveniles)×100] from the percent dead at T24 [(#dead juveniles/#total juveniles originally present)×100]. […] If the ANOVA indicated a significant difference existed among treatments, Tukey's HSD post hoc test was used to perform a pairwise contrast between each set of treatments. Different letters denote statistically significant results at P<0.05.
as §1, with “from” for “from SCN”, “rinsed four” for “rinsed 4”, “and 80-90%” for “and 80%”, “from each” for “from the”
Potato dextrose agar media containing chloramphenicol and chlortetracycline was prepared and added to sterile twenty-four-well cell culture plates (1 mL per well). The plates were divided according to the pre-determined N-value for each treatment (N=24). […]
To quantify the treatments' effects on nematode viability, the nematodes were examined under a dissecting microscope at 20× magnification. Initial (TO) values for the number of live juveniles, number of dead juveniles and total number of juveniles were recorded. […]

[2] = system: soybean cyst nematode (SCN, Heterodera glycines); test: Soybean cyst nematode reproduction on soybean after seed treatment, controlled environment (cysts per gram of root tissue or per plant); assay type: in vivo
[3] = system: Fall armyworm (Spodoptera frugiperda); test: Diet-surface overlay (DSO) bioassay on Fall armyworm; assay type: in vivo; conditions: for Larva Stage I / Larva Stage II / Larva Stage III / Larva Stage IV / Dead Larva: Fall armyworm
Experimental: Diet-surface overlay bioassays are conducted with artificial diet mixes without antibiotics in 1.5 cm^2 cell bioassay trays(s). Artificial diets are commercially available from Southland Products Inc. Diets were prepared by dispersing 0.5 mL of molten diet to each 1.5 cm^2 cell. After solidification, 0.1 mL enzyme treatments were dispersed on top of diet in each cell and the tray was gently rocked in an orbital shaker to spread the liquid uniformly over the diet surface. Trays were placed under clean airflow until the surface of each cell was uniformly dried. One or two 16-cell sections were used per treatment (the number in larvae treated was 16 or 32).
One healthy first instar larva was placed into each treatment cell, each 16-cell section was covered with a re-sealable lid and incubated at 27° C. and light-dark period of 16:8 hrs. After 7 days, and according to the species, the number of individuals in the following developmental categories was recorded.
Negative/untreated controls were treated with filtered water and positive controls were treated with lethal doses of Bacillus thuringiensis subsp. Kurstaki (Btk) spores at 1000 ppm.

[4] = system: soybean cyst nematode (SCN); test: SCN reproduction after application of enzyme or recombinant strain to soil; assay type: in vivo, Heterodera glycines; conditions: Table 34; for % Comparison to Control (figure in parentheses): change vs water control; for % Comparison to Control: first figure, water control = 100%; for Average cysts per g of root tissue: free enzyme 0.5 mL/plant to soil, soybean 2830E3, 3 weeks
Experimental: To determine the efficacy of nematicidal enzymes applied to soil, a controlled environment trial was performed with 7-day old soybean plants (variety 2830E3) grown in pots. Enzymes were produced as described in Example 2. Prior to inoculation, 0.5 mL of neutral protease (SEQ ID NO: 127), esterase B (SEQ ID NO: 89), or chitinase 19F (SEQ ID NO: 182) free enzyme solution was applied to the soil around the base of each plant, or 0.5 mL of water was applied for the control (30 plants per treatment). Then, hatched SCN juveniles were applied to the soil around each plant as described in Example 2, and three weeks later, cysts per gram of root tissue was determined as described in Example 2. The data was analyzed as in Example 2 and appears in Tables 33 and 34.
To determine the efficacy of recombinant strains applied to soil, a controlled environment trial was performed as described in Example 18 above (Reduction of soybean cyst nematode reproduction by enzymes applied to soil), with the exception that a recombinant strain expressing neutral protease (SEQ ID NO: 127) was applied instead of a free enzyme solution. The recombinant strain was produced as in Example 3, and the treatment applied to soil as a whole cell broth.

[5] = Table 11, free enzyme seed treatment 2 fl. oz. per unit of seed (ILEVO 0.15 mg active ingredient per seed), soybean P18A98X, 3 weeks after inoculation
[6] = Table 48, chitinases, number of individuals of n = 32, DSO bioassay
[7] = Table 50, esterases, number of individuals of n = 32

B1: Chitinase 19F (SEQ ID NO: 182): Streptomyces coelicolor Chitinase F (Chi19F) (protein)
chain: ASCSSYHAWSADANYNTGDIVRYTDGKAYIAEHANPGYDPLISTWYWDPYACDGGSQTPVGNFVVSEAQFNQMFPGRNSFYTYSGLTAALSAYPGFANTGSDTTKKQEAAAFLANVSHETGGLVYIVEQNTANYPHYCDWNQPYGCPAGQAAYYGRGPIQLSWNFNYKAAGDALGIDLLGNPWLVQNDAAVAWKTGLWYWNTQSGPGTMTPHNAMVNGAGFGQTIRSINGSLECDGKNPAQVQSRVTKYQQFAQILGVSPGGNLYC
modifications: Chitinase F (Chi19F); Streptomyces coelicolor
How did the “Difference in Percent Death of Nematodes for 0 to 24 Hours” value ([1]; Table 32, 40 μL per well of each treatment, water only 4%) turn out when B1 was run?
The value was 24%.

And the “Average cysts per g of root tissue” value [2, 5]?
The value was 48.8 cysts per g of root tissue.

What about the “Average cysts per g of root tissue” value ([2]; Table 12, free enzyme seed treatment 2 fl. oz. per unit of seed (ILEVO 0.15 mg active ingredient per seed), soybean P18A98X) of the same molecule?
Its value is 296.9 cysts per g of root tissue.

What about the “Larva Stage I” value [3, 6] of the same molecule?
The value was 4.

What about the “Larva Stage II” value [3, 6] of the same molecule?
The value was 14.

What about the “Larva Stage III” value [3, 6] of the same molecule?
Its value is 5.

And the “Larva Stage IV” value [3, 6]?
The value was 6.

And the “Dead Larva” value ([3]; Table 48, chitinases, number of individuals of n = 32, DSO bioassay, dose per treatment in mU/mL Diet)?
Its value is 3.

And the “% Comparison to Control (figure in parentheses)” value [4]?
The value was −32%.

And the “% Comparison to Control” value [4]?
Its value is “reduced SCN reproduction”.

What about the “% Comparison to Control” value ([4]; listed as Chitinase 19F free enzyme (SEQ ID NO: 182)) of the same molecule?
The value was 68%.

What about the “Average cysts per g of root tissue” value [4] of the same molecule?
The value was 95.6 cysts per g of root tissue.

B2: Esterase B (SEQ ID NO: 89): Bacillus subtilis Esterase (EstB without signal sequence) (protein, listed as Bacillus subtilis)
chain: ESVHNPVVLVHGISGASYNFFAIKNYLISQGWQSNKLYAIDFYDKTGNNLNNGPQLASYVDRVLKETGAKKVDIVAHSMGGANTLYYIKYLGGGNKIQNVVTLGGANGLVSSTALPGTDPNQKILYTSIYSLNDQIVINSLSRLQGARNIQLYGIGHIGLLSNSQVNGYIKEGLNGGGLNTN
modifications: Esterase (EstB H191 without signal sequence)
Which results are given for B2?
Difference in Percent Death of Nematodes for 0 to 24 Hours ([1]; Table 28, 40 μL of each treatment per well, fertilizer diluted to 3% v/v): 3%; difference in percent death over twenty-four hours relative to the combination treatment ([1]; single treatment vs Esterase B + 10-34-0 fertilizer combination): −7%; Average cysts per g of root tissue [2, 5]: 19.6 cysts per g of root tissue; Average cysts per g of root tissue ([2]; Table 15, seed treated with whole cell broth, soybean P18A98X): 56.3 cysts per g of root tissue; Average cysts per g of root tissue ([2]; Table 25, dried formulation 0.04 units of enzyme activity per seed, liquid 2 fl oz per unit of seed, soybean 3230E3): 233.2 cysts per g of root tissue; Larva Stage I [3, 7]: 3; Larva Stage II [3, 7]: 4; Larva Stage III [3, 7]: 14; Larva Stage IV [3, 7]: 10; Dead Larva ([3]; Table 50, esterases, number of individuals of n = 32, DSO bioassay, dose per treatment in U/mL Diet): 1; individuals with delayed development ([3]; text to Table 50, esterases, n = 32): 67%; % Comparison to Control (figure in parentheses) [4]: −16%; % Comparison to Control [4]: reduced SCN reproduction; % Comparison to Control ([4]; listed as Esterase B free enzyme (SEQ ID NO: 89)): 84%; Average cysts per g of root tissue [4]: 117.3 cysts per g of root tissue
